Assay results from article PMC4714512.

Biological target: Human histone H3.5 (human) (UniProt Q6NXT2)
Assay: native gel or EMSA; nucleosomes reconstituted with 146 base-pair human alpha-satellite DNA by salt dialysis from 2 M KCl, heated at 55 °C for 2 h, purified by preparative non-denaturing PAGE; analysed by non-denaturing 6 % PAGE and 18 % SDS-PAGE (histone composition)

Row | stoichiometry N | Substance
1 | 1 | Human histone H2A (from UniProt P04908 1-130) (natural protein)
2 | 1 | Human histone H2B (from UniProt P06899 1-126) (natural protein)
3 | 1 | Human histone H4 (from UniProt P62805 1-103) (natural protein)
